For series [1], the system named is T1, C[C@H](NC(=O)[C@H](CCCCN)NC(=O)CNC(=O)[C@@H](N)Cc1ccc(O)c([N+](=O)[O-])c1)C(=O)N[C@@H](Cc1ccccc1)C(=O)N[C@@H](CCCNC(=N)N)C(=O)N[C@@H](CCCNC(=N)N)C(=O)N[C@@H](CN)C(=O)N[C@@H](Cc1ccccc1)C(=O)N[C@@H](CCCCNC(=O)c1ccccc1N)C(=O)O.
T1 construct: made in house
Put plainly: hK2 mediated hydrolysis of peptide substrates in solution (fluorescence). The class given is biochemical, human. The note with it: other: Lineweaver-Burke reciprocal plots; 37.0 °C. As to the method: FIG. 2 depicts a graph of hK2 mediated hydrolysis of peptide substrates identified through the screening of a random peptide library [Y′GKARAF-Dap-FK′ (SEQ ID NO:36), Y′GKAKPR-Dap-FK′ (SEQ ID NO:37), Y′GKAFRR-Dap-FK′ (SEQ ID NO:38), Y′GKAMRQ-Dap-FK′ (SEQ ID NO:39) and Y′GSKGHFKL-Dap-F-K′ (SEQ ID NO:40)]. Substrates (250 μM) were incubated with 8 μg/ml hK2 in PBS buffer. Hydrolysis of peptide results in increased fluorescence, as measured using a 96 well fluorometer. […] To determine 100% digestion, trypsin was added (50 mg/ml) and samples were incubated to 37° C. for 30 min and the fluorescence was determined. The percentage digested is determined by dividing fluorescence units of sample by fluorescence units of control fully digested peptide.
A mutant form of hK2 was utilized in which the amino acids −5 to −1 of the propeptide sequence of hK2 (i.e. Leu-Ile-Gln-Ser-Arg; SEQ ID NO:15) were mutated to Asp-Asp-Asp-Asp-Lys (SEQ ID NO:16) to generate a pro-hK2 protein that can be activated to functional hK2 by […] (Lovgren, J. et al. (1999) Eur. J. Biochem. 266:1050-1055). […]
For validation of the Edman results, peptides were re-synthesized using a Rainin PS3 peptide synthesizer with HBTU/NMM activation. […] Fluorescence measurements were performed on a Fluoroskan II 96-well plate reader (ICN biomedicals, Costa Mesa, Calif.; excitation, 355 nm; emission, 460 nm). Kinetic parameters were calculated as described earlier (Denmeade, S. R. et al. (1997) Cancer Res. 57:4924-4930).
The combinatorial screen identified seven arginine-containing peptides. […] All four arginine-containing sequences that were re-synthesized reproduced fluorescence when these peptides were digested on-bead with hK2. For a more quantitative analysis, the fluorescence-quenched peptides were cleaved off the resin and purified by HPLC. The rate of hydrolysis was quantified by measuring increase in fluorescence (Figure). […] In subsequent studies, hydrolysis rates using the Y′GKAFRR-Dap-F-K′ (SEQ ID NO:38) peptide were analyzed by Lineweaver-Burke reciprocal plots.

Series [2] relates to T2, Cc1cc(=O)oc2cc(NC(=O)[C@H](CCCNC(=N)N)NC(=O)[C@H](Cc3ccccc3)NC(=O)[C@H](C)NC(=O)[C@H](CCCCN)NC(=O)CN)ccc12.
T2 construct: made in house
The series is described as above. The class given is biochemical, human. The note with it: other: Lineweaver-Burke reciprocal plots; 37.0 °C.

Drawing on patent US7906477B2, “Activation of peptide prodrugs by hK2” (Genspera, Inc., priority 2002, dated 2011), this text covers Km, kcat and kcat/Km for one substance.

The Km is the concentration of substrate that gives half-maximal velocity. Usually kcat stands for the maximal rate divided by the concentration of active sites. As usually defined, the kcat/Km is the second-order rate constant that governs catalysis at low substrate concentration.

hK2 (Homo sapiens): in series [1], the Km turned out to be 26.5 µM, the kcat turned out to be 1.09 s⁻¹ and the kcat/Km was 41,132 sec^−1 M^−1. Further, in series [2], the Km amounted to 146 µM, the kcat turned out to be 0.13 s⁻¹ and the kcat/Km came out at 895 M⁻¹ s⁻¹.
